Here are results for nine molecules from patent US20180022780A1 (Bayer, published 2018).

Bridge positions count the residues as written; N and C are the ends. Square brackets hold non-standard residues; d marks the D form. Ends that are not written are not given here. * marks the point of attachment. Palmitoyl = CCCCCCCCCCCCCCCC(=O)*; NMeI = CC[C@H](C)[C@H](NC)C(=O)O; Dab = NCC[C@H](N)C(=O)O A value given as a limit tells only on which side of the number the result lay.

The target in experiment [1] is CLR fused to EYFP with RAMP2 fused to ECFP. The experiment is described as follows: cell-based or functional assay.
Chain of CLR fused to EYFP with RAMP2 fused to ECFP (Q16602 whole entry, chain 1 of 2, the tested form may be a part): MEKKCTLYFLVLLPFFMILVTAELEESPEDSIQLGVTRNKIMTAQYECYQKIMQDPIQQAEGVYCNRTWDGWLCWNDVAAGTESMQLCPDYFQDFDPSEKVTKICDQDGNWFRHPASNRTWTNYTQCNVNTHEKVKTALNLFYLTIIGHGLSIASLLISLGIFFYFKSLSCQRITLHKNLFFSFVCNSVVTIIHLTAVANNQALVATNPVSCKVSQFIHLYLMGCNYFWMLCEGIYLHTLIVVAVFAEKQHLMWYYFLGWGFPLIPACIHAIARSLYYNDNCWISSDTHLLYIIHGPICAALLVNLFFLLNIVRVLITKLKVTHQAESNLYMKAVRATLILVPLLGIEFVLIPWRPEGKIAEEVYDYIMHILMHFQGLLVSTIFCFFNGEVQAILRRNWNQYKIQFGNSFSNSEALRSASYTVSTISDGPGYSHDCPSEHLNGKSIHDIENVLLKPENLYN
Chain of CLR fused to EYFP with RAMP2 fused to ECFP (O60895 whole entry, chain 2 of 2, further chain, the tested form may be a part): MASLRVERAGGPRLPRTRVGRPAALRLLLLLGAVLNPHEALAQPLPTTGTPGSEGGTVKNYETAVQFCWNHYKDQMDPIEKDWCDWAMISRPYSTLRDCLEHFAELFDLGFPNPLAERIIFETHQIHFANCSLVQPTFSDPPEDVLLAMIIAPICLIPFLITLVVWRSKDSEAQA
Experiment [2] has as its target human adrenomedullin-receptor (human, UniProt Q16602 23-461). The experiment is described as follows: cell-based or functional assay.

Chain of human adrenomedullin-receptor (Q16602 23-461): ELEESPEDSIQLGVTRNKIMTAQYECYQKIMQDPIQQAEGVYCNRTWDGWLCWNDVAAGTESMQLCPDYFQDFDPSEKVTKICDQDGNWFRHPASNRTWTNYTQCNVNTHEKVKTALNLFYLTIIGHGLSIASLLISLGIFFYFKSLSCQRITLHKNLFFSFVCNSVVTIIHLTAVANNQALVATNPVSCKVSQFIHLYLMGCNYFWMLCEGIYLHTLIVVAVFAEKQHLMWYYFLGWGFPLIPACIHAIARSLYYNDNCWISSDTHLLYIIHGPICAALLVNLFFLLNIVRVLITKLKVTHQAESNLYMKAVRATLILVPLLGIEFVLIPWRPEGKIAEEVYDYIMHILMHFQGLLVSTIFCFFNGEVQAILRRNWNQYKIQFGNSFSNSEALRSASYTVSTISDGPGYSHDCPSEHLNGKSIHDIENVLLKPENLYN

As for GGERFGT[Dab]TVQKLAHQIYQFTDKDKDNVAPRSKISPQGY-NH2 (lactam 3-8) [[G^14, (E^16, Dab^21)lac]ADM(14-52)], the “EC50 [nM], cAMP assay (CRE-luciferase luminescence, HEK293 cells)” value (shortened to “EC50 [nM], cAMP assay”) in experiment [1] came to 41 nM. Besides, the “EC50 [nM], aequorin luminescence of CHO adrenomedullin-receptor reporter cells” value (shortened to “EC50 [nM], aequorin luminescence”) in experiment [2] came out at 19.6 nM.

B1: [K^14(PAM), (K^16,E^21)lac]ADM(14-52) (peptide)
peptide: K(Palmitoyl)GKRFGTETVQKLAHQIYQFTDKDKDNVAPRSKISPQGY-NH2
modifications: lactam 3-8; N-terminus assumed
SMILES: CCCCCCCCCCCCCCCC(=O)NCCCC[C@H](N)C(=O)NCC(=O)N[C@H]1CCCCNC(=O)CC[C@@H](C(=O)N[C@H](C(=O)N[C@H](C(=O)N[C@@H](CCC(N)=O)C(=O)N[C@@H](CCCCN)C(=O)N[C@@H](CC(C)C)C(=O)N[C@@H](C)C(=O)N[C@@H](Cc2c[nH]cn2)C(=O)N[C@@H](CCC(N)=O)C(=O)N[C@H](C(=O)N[C@@H](Cc2ccc(O)cc2)C(=O)N[C@@H](CCC(N)=O)C(=O)N[C@@H](Cc2ccccc2)C(=O)N[C@H](C(=O)N[C@@H](CC(=O)O)C(=O)N[C@@H](CCCCN)C(=O)N[C@@H](CC(=O)O)C(=O)N[C@@H](CCCCN)C(=O)N[C@@H](CC(=O)O)C(=O)N[C@@H](CC(N)=O)C(=O)N[C@H](C(=O)N[C@@H](C)C(=O)N2CCC[C@H]2C(=O)N[C@@H](CCCNC(=N)N)C(=O)N[C@@H](CO)C(=O)N[C@@H](CCCCN)C(=O)N[C@H](C(=O)N[C@@H](CO)C(=O)N2CCC[C@H]2C(=O)N[C@@H](CCC(N)=O)C(=O)NCC(=O)N[C@@H](Cc2ccc(O)cc2)C(N)=O)[C@@H](C)CC)C(C)C)[C@@H](C)O)[C@@H](C)CC)C(C)C)[C@@H](C)O)NC(=O)[C@H]([C@@H](C)O)NC(=O)CNC(=O)[C@H](Cc2ccccc2)NC(=O)[C@H](CCCNC(=N)N)NC1=O
For the molecule B1, in experiment [1], the “EC50 [nM], cAMP assay” value was determined as 156 nM. For the same molecule, the “EC50 [nM], aequorin luminescence” value in experiment [2] is more than 1000 nM.

B2: [G^14, (C^16→U^21)]ADM(14-52) (peptide)
peptide: GGCRFGTXTVQKLAHQIYQFTDKDKDNVAPRSKISPQGY
modifications: positions 16 and 21 (residues 3 and 8 of the letters) together are cystathionine (C^16→U^21, thioether disulfide bond mimetic); X stands for the printed U at 21; C-terminal amide
Consider B2, for which the “EC50 [nM], cAMP assay” value in experiment [1] was 3.3 nM. The “EC50 [nM], aequorin luminescence” value in experiment [2] worked out at 0.07 nM.

B3: PAM[K^14, (C^16→U^21)]ADM(14-52) (peptide)
peptide: KGCRFGTXTVQKLAHQIYQFTDKDKDNVAPRSKISPQGY
modifications: palmitic acid (PAM) on the N-terminus (alpha-amine of K14); positions 16 and 21 (residues 3 and 8 of the letters) together are cystathionine (C^16→U^21, thioether); X stands for the printed U at 21; C-terminal amide
B3: the “EC50 [nM], aequorin luminescence” value in experiment [2] amounted to 11 nM.

B4: [K^14(PAM), (C^16→U^21)]ADM(14-52) (peptide)
peptide: KGCRFGTXTVQKLAHQIYQFTDKDKDNVAPRSKISPQGY
modifications: palmitic acid (PAM) on the side chain of K14 (residue 1 of the letters); positions 16 and 21 (residues 3 and 8) together are cystathionine (C^16→U^21, thioether); X stands for the printed U at 21; C-terminal amide
Turning to B4, in experiment [2], the “EC50 [nM], aequorin luminescence” value stood at 24 nM.

B5: [G^14, (Dab^16, E^21)lac]ADM(14-52) (peptide)
peptide: GG[Dab]RFGTETVQKLAHQIYQFTDKDKDNVAPRSKISPQGY-NH2
modifications: lactam 3-8; N-terminus assumed
SMILES: CC[C@H](C)[C@H](NC(=O)[C@H](CCC(N)=O)NC(=O)[C@H](Cc1c[nH]cn1)NC(=O)[C@H](C)NC(=O)[C@H](CC(C)C)NC(=O)[C@H](CCCCN)NC(=O)[C@H](CCC(N)=O)NC(=O)[C@@H](NC(=O)[C@@H](NC(=O)[C@@H]1CCC(=O)NCC[C@H](NC(=O)CNC(=O)CN)C(=O)N[C@@H](CCCNC(=N)N)C(=O)N[C@@H](Cc2ccccc2)C(=O)NCC(=O)N[C@@H]([C@@H](C)O)C(=O)N1)[C@@H](C)O)C(C)C)C(=O)N[C@@H](Cc1ccc(O)cc1)C(=O)N[C@@H](CCC(N)=O)C(=O)N[C@@H](Cc1ccccc1)C(=O)N[C@H](C(=O)N[C@@H](CC(=O)O)C(=O)N[C@@H](CCCCN)C(=O)N[C@@H](CC(=O)O)C(=O)N[C@@H](CCCCN)C(=O)N[C@@H](CC(=O)O)C(=O)N[C@@H](CC(N)=O)C(=O)N[C@H](C(=O)N[C@@H](C)C(=O)N1CCC[C@H]1C(=O)N[C@@H](CCCNC(=N)N)C(=O)N[C@@H](CO)C(=O)N[C@@H](CCCCN)C(=O)N[C@H](C(=O)N[C@@H](CO)C(=O)N1CCC[C@H]1C(=O)N[C@@H](CCC(N)=O)C(=O)NCC(=O)N[C@@H](Cc1ccc(O)cc1)C(N)=O)[C@@H](C)CC)C(C)C)[C@@H](C)O
Take B5: the “EC50 [nM], cAMP assay” value in experiment [1] came to 84 nM. Besides, the “EC50 [nM], aequorin luminescence” value in experiment [2] is 34 nM.

In the case of K(Palmitoyl)GERFGTKTVQKLAHQIYQFTDKDKDNVAPRSK[NMeI]SPQGY-NH2 (lactam 3-8) [[K^14(PAM), (E^16,K^21)lac, N-Me-I^47]ADM(14-52)], in experiment [1], the “EC50 [nM], cAMP assay” value turned out to be 150 nM. The “EC50 [nM], aequorin luminescence” value in experiment [2] came out at 32 nM.

B6: [G^14, (E^16, K^21)lac]ADM(14-52) (peptide)
peptide: GGERFGTKTVQKLAHQIYQFTDKDKDNVAPRSKISPQGY-NH2
modifications: lactam 3-8; N-terminus assumed
SMILES: CC[C@H](C)[C@H](NC(=O)[C@H](CCC(N)=O)NC(=O)[C@H](Cc1c[nH]cn1)NC(=O)[C@H](C)NC(=O)[C@H](CC(C)C)NC(=O)[C@H](CCCCN)NC(=O)[C@H](CCC(N)=O)NC(=O)[C@@H](NC(=O)[C@@H](NC(=O)[C@@H]1CCCCNC(=O)CC[C@H](NC(=O)CNC(=O)CN)C(=O)N[C@@H](CCCNC(=N)N)C(=O)N[C@@H](Cc2ccccc2)C(=O)NCC(=O)N[C@@H]([C@@H](C)O)C(=O)N1)[C@@H](C)O)C(C)C)C(=O)N[C@@H](Cc1ccc(O)cc1)C(=O)N[C@@H](CCC(N)=O)C(=O)N[C@@H](Cc1ccccc1)C(=O)N[C@H](C(=O)N[C@@H](CC(=O)O)C(=O)N[C@@H](CCCCN)C(=O)N[C@@H](CC(=O)O)C(=O)N[C@@H](CCCCN)C(=O)N[C@@H](CC(=O)O)C(=O)N[C@@H](CC(N)=O)C(=O)N[C@H](C(=O)N[C@@H](C)C(=O)N1CCC[C@H]1C(=O)N[C@@H](CCCNC(=N)N)C(=O)N[C@@H](CO)C(=O)N[C@@H](CCCCN)C(=O)N[C@H](C(=O)N[C@@H](CO)C(=O)N1CCC[C@H]1C(=O)N[C@@H](CCC(N)=O)C(=O)NCC(=O)N[C@@H](Cc1ccc(O)cc1)C(N)=O)[C@@H](C)CC)C(C)C)[C@@H](C)O
Turning to B6, in experiment [1], the “EC50 [nM], cAMP assay” value is 31 nM. Also, the “EC50 [nM], aequorin luminescence” value in experiment [2] turned out to be 20.5 nM.

B7: [K^14(PAM), (E^16, K^21)lac]ADM(14-52) (peptide)
peptide: K(Palmitoyl)GERFGTKTVQKLAHQIYQFTDKDKDNVAPRSKISPQGY-NH2
modifications: lactam 3-8; N-terminus assumed
SMILES: CCCCCCCCCCCCCCCC(=O)NCCCC[C@H](N)C(=O)NCC(=O)N[C@H]1CCC(=O)NCCCC[C@@H](C(=O)N[C@H](C(=O)N[C@H](C(=O)N[C@@H](CCC(N)=O)C(=O)N[C@@H](CCCCN)C(=O)N[C@@H](CC(C)C)C(=O)N[C@@H](C)C(=O)N[C@@H](Cc2c[nH]cn2)C(=O)N[C@@H](CCC(N)=O)C(=O)N[C@H](C(=O)N[C@@H](Cc2ccc(O)cc2)C(=O)N[C@@H](CCC(N)=O)C(=O)N[C@@H](Cc2ccccc2)C(=O)N[C@H](C(=O)N[C@@H](CC(=O)O)C(=O)N[C@@H](CCCCN)C(=O)N[C@@H](CC(=O)O)C(=O)N[C@@H](CCCCN)C(=O)N[C@@H](CC(=O)O)C(=O)N[C@@H](CC(N)=O)C(=O)N[C@H](C(=O)N[C@@H](C)C(=O)N2CCC[C@H]2C(=O)N[C@@H](CCCNC(=N)N)C(=O)N[C@@H](CO)C(=O)N[C@@H](CCCCN)C(=O)N[C@H](C(=O)N[C@@H](CO)C(=O)N2CCC[C@H]2C(=O)N[C@@H](CCC(N)=O)C(=O)NCC(=O)N[C@@H](Cc2ccc(O)cc2)C(N)=O)[C@@H](C)CC)C(C)C)[C@@H](C)O)[C@@H](C)CC)C(C)C)[C@@H](C)O)NC(=O)[C@H]([C@@H](C)O)NC(=O)CNC(=O)[C@H](Cc2ccccc2)NC(=O)[C@H](CCCNC(=N)N)NC1=O
B7: in experiment [1], the “EC50 [nM], cAMP assay” value was found to be 29 nM. Also, the “EC50 [nM], aequorin luminescence” value in experiment [2] amounted to 0.81 nM.
